For test [1], the system named is HEK293T cells. The test can be described thus: Cell cycle analysis by flow cytometry. The format is cell-based. The following applies: for effect on S phase (words): 48-h overexpression, vs control cells; for percent of cells in S phase: 48-h overexpression of mCherry-tagged protein, EdU/PI, average of three independent experiments, control 34.5%. As for the experimental part:
For DNA content analysis, 10^6 cells previously transfected with mCherry MORC4 constructs and labeled with 25 µM Ethynyl deoxyUridine (EdU) for 1 h in 100 µL were washed with PBS (NaCl 137 mM, KCl 2.7 mM, Na2HPO4 10 mM, KH2PO4 1.8 mM) and fixed in ice cold 70% ethanol overnight. Fixed cells were washed and resuspended in PBS containing 0.05% NP40 and incubated at room temperature for 30 min. Cells were again washed with PBS. Cells were resuspended in Alexa Fluor 647 click staining solution (100 mM Tris pH 7.6, 4 mM CuSO4, 3 µM AF647 azide, 100 mM Sodium Ascorbate) for 1 h. Following staining, cells were washed with PBS and then stained for total DNA content using 10 μg/mL propidium iodide (PI) and 0.2 mg/ml RNase A for 60 min before analysis on a FACScan instrument. Data were analyzed using FlowJo (Version 10) with cells gated to remove doublets. EdU vs PI plots were gated in quadrants to identify G1, early S, late S and G2/M cells. S phase fractions were summed for total S phase population. […]
(In general: A flow cytometer gives signals particle by particle.)

The subject of test [2] is HEK293T cells. The test can be described thus: MORC4 localization and nuclear bodies (confocal microscopy). Format: cell-based. The settings on record: live cells, confocal microscopy, 48 h post transfection. Here is the method: WT mCherry-MORC4, mCherry-MORC4 E56A, mCherry-MORC4 W435A, mCherry-MORC4 E56A/W435A, mCherry-MORC4 K460A/R462A/R463A, or mCherry control plasmid were transfected into 2 million 293T-HEK cells seeded on 25 mm circular coverslips (Carolina Biological Supply Item#: 633057) in 10-cm-diameter tissue culture dish by Lipofectamine 3000 (Life Technology, L3000-075) following the manufacturer’s instructions. Two days after transfection, cells were stained with Hoechst […] for 30 min and imaged live on a ZeissAxiovert 200 M inverted microscope fitted with a ×40 oil objective. Images were acquired with Slidebook 6 software and exported for analysis in Image J.
mCherry foci sizes were calculated using ImageJ image processing program (version 1.51) using the Analyze Particle tool. mCherry particle sizes were collected for MORC4 WT and MORC4 W435A transfected cells. Data were plotted with R (version 3.4.1) using ggplot2 (version 3.2.1). Cell size and mCherry foci count per cell were calculated using CellProfile cell image analysis software (version 3.1.5) to identify nuclei and mCherry foci, relate mCherry foci to nuclei containing them and measure the size of nuclei and number mCherry foci contained. Data were plotted with R (version 3.4.1) using ggplot2 (version 3.2.1).

The next test addresses T1, MORC4 CW domain (Homo sapiens, UniProt Q8TE76).
T1 construct: The CW domain (aa 417–475) of MORC4 was cloned into a pGEX 6p-1 vector; GST (N, cleaved yes); made in house; host or cells: E. coli Rosetta2 (DE3) pLysS or BL21 (DE3) RIL
T1 sequence (Q8TE76 417-475): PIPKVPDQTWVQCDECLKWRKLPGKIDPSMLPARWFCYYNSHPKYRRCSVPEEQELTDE
As to the kind of experiment: 1H,15N HSQC NMR titration of MORC4 CW. The format is binding. The settings on record: Supplementary Fig. 12. Here is the method:
NMR experiments were carried out at 298 K on a Varian INOVA 600 and 900 MHz spectrometers. His-tagged MORC4 ATPase (1–411) was expressed and purified as described above and used without cleavage of the tag. NMR samples contained 0.1 mM uniformly ^15N-labeled WT or mutated CW in 20 mM Tris-HCl (pH 7) buffer supplemented with 100 mM NaCl, 5 mM DTT, and 10% D2O. Binding was characterized by monitoring CSPs in the proteins induced by H3 peptides or the ATPase domain. For the CWKRR mutant, NMR experiments were performed in 20 mM Tris-HCl (pH 6.8) buffer supplemented with 150 mM NaCl, 2 mM DTT, and 10% D2O.

B1: MORC4 K460A/R462A/R463A: mCherry-tagged MORC4 triple mutant with disrupted DNA-binding activity of CW (protein, UniProt Q8TE76 1-937, looked up, variant K460A R462A R463A)
MORC family CW-type zinc …: MLLYRGAPAGPGAPGCGLARPGGGPQAFGIRLSTMSPRYLQSNSSSHTRPFSAIAELLDNAVDPDVSARTVFIDVEEVKNKSCLTFTDDGCGMTPHKLHRMLSFGFTDKVIKKSQCPIGVFGNGFKSGSMRLGKDALVFTKNGGTLTVGLLSQTYLECVQAQAVIVPIVPFNQQNKKMIITEDSLPSLEAILNYSIFNRENDLLAQFDAIPGKKGTRVLIWNIRRNKNGKSELDFDTDQYDILVSDFDTEEKMTGGVTSELPETEYSLRAFCGILYMKPRMKIFLRQKKVTTQMIAKSLANVEYDTYKPTFTNKQVRITFGFSCKNSNQFGIMMYHNNRLIKSFEKVGCQVKPTRGEGVGVIGVIECNFLKPAYNKQDFEYTKEYRLTINALAQKLNAYWKEKTSQDNFETSTVARPIPKVPDQTWVQCDECLKWRKLPGKIDPSMLPARWFCYYNSHPAYAACSVPEEQELTDEDLCLSKAKKQEQTVEEKKKMPMENENHQVFSNPPKILTVQEMAGLNNKTIGYEGIHSPSVLPSGGEESRSPSLQLKPLDSSVLQFSSKYKWILGEEPVEKRRRLQNEMTTPSLDYSMPAPYRRVEAPVAYPEGENSHDKSSSERSTPPYLFPEYPEASKNTGQNREVSILYPGAKDQRQGSLLPEELEDQMPRLVAEESNRGSTTINKEEVNKGPFVAVVGVAKGVRDSGAPIQLIPFNREELAERRKAVESWNPVPYSVASAAIPAAAIGEKARGYEESEGHNTPKLKNQRELEELKRTTEKLERVLAERNLFQQKVEELEQERNHWQSEFKKVQHELVIYSTQEAEGLYWSKKHMGYRQAEFQILKAELERTKEEKQELKEKLKETETHLEMLQKAQVSYRTPEGDDLERALAKLTRLRIHVSYLLTSVLPHLELREIGYDSEQVDGILYTVLEANHILD
modifications: mCherry tag
Regarding B1, the “effect on S phase (words)” value in the test on HEK293T cells [1] is “increased percent of cells in S phase”; in the test on HEK293T cells [1] (listed as K460A/R462A/R463A), “no significant effect was observed”.

B2: MORC4 W435A: mCherry-tagged full-length MORC4 W435A mutant, in which the structure of the CW domain is disrupted (protein, UniProt Q8TE76 1-937, looked up, variant W435A)
chain: MLLYRGAPAGPGAPGCGLARPGGGPQAFGIRLSTMSPRYLQSNSSSHTRPFSAIAELLDNAVDPDVSARTVFIDVEEVKNKSCLTFTDDGCGMTPHKLHRMLSFGFTDKVIKKSQCPIGVFGNGFKSGSMRLGKDALVFTKNGGTLTVGLLSQTYLECVQAQAVIVPIVPFNQQNKKMIITEDSLPSLEAILNYSIFNRENDLLAQFDAIPGKKGTRVLIWNIRRNKNGKSELDFDTDQYDILVSDFDTEEKMTGGVTSELPETEYSLRAFCGILYMKPRMKIFLRQKKVTTQMIAKSLANVEYDTYKPTFTNKQVRITFGFSCKNSNQFGIMMYHNNRLIKSFEKVGCQVKPTRGEGVGVIGVIECNFLKPAYNKQDFEYTKEYRLTINALAQKLNAYWKEKTSQDNFETSTVARPIPKVPDQTWVQCDECLKARKLPGKIDPSMLPARWFCYYNSHPKYRRCSVPEEQELTDEDLCLSKAKKQEQTVEEKKKMPMENENHQVFSNPPKILTVQEMAGLNNKTIGYEGIHSPSVLPSGGEESRSPSLQLKPLDSSVLQFSSKYKWILGEEPVEKRRRLQNEMTTPSLDYSMPAPYRRVEAPVAYPEGENSHDKSSSERSTPPYLFPEYPEASKNTGQNREVSILYPGAKDQRQGSLLPEELEDQMPRLVAEESNRGSTTINKEEVNKGPFVAVVGVAKGVRDSGAPIQLIPFNREELAERRKAVESWNPVPYSVASAAIPAAAIGEKARGYEESEGHNTPKLKNQRELEELKRTTEKLERVLAERNLFQQKVEELEQERNHWQSEFKKVQHELVIYSTQEAEGLYWSKKHMGYRQAEFQILKAELERTKEEKQELKEKLKETETHLEMLQKAQVSYRTPEGDDLERALAKLTRLRIHVSYLLTSVLPHLELREIGYDSEQVDGILYTVLEANHILD
modifications: full-length mCherry tag
With B2, the “subcellular localization” value with HEK293T cells [2] was “dispersed throughout the cell”. Besides, in the test with MORC4 CW domain, the “structure of the CW domain” value was “the structure of the CW domain is disrupted”. Moreover, the “percent of cells in S phase” value with HEK293T cells [1] turned out to be 36.5%.

B3: E56A/W435A: dual mutant of mCherry-tagged MORC4 (protein, UniProt Q8TE76 1-937, looked up, variant E56A W435A)
chain: MLLYRGAPAGPGAPGCGLARPGGGPQAFGIRLSTMSPRYLQSNSSSHTRPFSAIAALLDNAVDPDVSARTVFIDVEEVKNKSCLTFTDDGCGMTPHKLHRMLSFGFTDKVIKKSQCPIGVFGNGFKSGSMRLGKDALVFTKNGGTLTVGLLSQTYLECVQAQAVIVPIVPFNQQNKKMIITEDSLPSLEAILNYSIFNRENDLLAQFDAIPGKKGTRVLIWNIRRNKNGKSELDFDTDQYDILVSDFDTEEKMTGGVTSELPETEYSLRAFCGILYMKPRMKIFLRQKKVTTQMIAKSLANVEYDTYKPTFTNKQVRITFGFSCKNSNQFGIMMYHNNRLIKSFEKVGCQVKPTRGEGVGVIGVIECNFLKPAYNKQDFEYTKEYRLTINALAQKLNAYWKEKTSQDNFETSTVARPIPKVPDQTWVQCDECLKARKLPGKIDPSMLPARWFCYYNSHPKYRRCSVPEEQELTDEDLCLSKAKKQEQTVEEKKKMPMENENHQVFSNPPKILTVQEMAGLNNKTIGYEGIHSPSVLPSGGEESRSPSLQLKPLDSSVLQFSSKYKWILGEEPVEKRRRLQNEMTTPSLDYSMPAPYRRVEAPVAYPEGENSHDKSSSERSTPPYLFPEYPEASKNTGQNREVSILYPGAKDQRQGSLLPEELEDQMPRLVAEESNRGSTTINKEEVNKGPFVAVVGVAKGVRDSGAPIQLIPFNREELAERRKAVESWNPVPYSVASAAIPAAAIGEKARGYEESEGHNTPKLKNQRELEELKRTTEKLERVLAERNLFQQKVEELEQERNHWQSEFKKVQHELVIYSTQEAEGLYWSKKHMGYRQAEFQILKAELERTKEEKQELKEKLKETETHLEMLQKAQVSYRTPEGDDLERALAKLTRLRIHVSYLLTSVLPHLELREIGYDSEQVDGILYTVLEANHILD
modifications: full-length mCherry tag
notes: dual mutant of mCherry-tagged MORC4
As for B3, the “percent of cells in S phase” value in the test with HEK293T cells [1] amounted to 35.8%.

Source of the values: publication PMC7596504, “Molecular mechanism of the MORC4 ATPase activation” (Nature Communications, 2020).
